In paper PMC5508476 (Translational Oncology, 2017):

Molecular target: FOLR1-His (Homo sapiens, UniProt P15328)
Assay: SPR

FOLR1-His, sequence (P15328 25-233): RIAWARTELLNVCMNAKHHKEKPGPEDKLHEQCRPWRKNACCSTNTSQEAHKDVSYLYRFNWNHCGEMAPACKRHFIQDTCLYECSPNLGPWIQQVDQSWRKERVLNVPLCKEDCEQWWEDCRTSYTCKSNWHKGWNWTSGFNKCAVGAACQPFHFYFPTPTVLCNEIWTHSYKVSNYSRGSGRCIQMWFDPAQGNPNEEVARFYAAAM

- Kd: 31.4 nM
B1: KM8188 (antibody, V domains shown)
VH: EVQLVESGGGVVQPGRSLRLSCSASGFTFSGYGLSWVRQAPGKGLEWVAMISSGGSYTYYADSVKGRFAISRDNAKNTLFLQMDSLRPEDTGVYFCARHGDDPAWFAYWGQGTPVTVSS
VL: DIQLTQSPSSLSASVGDRVTITCSVSSSISSNNLHWYQQKPGKAPKPWIYGTSNLASGVPSRFSGSGSGTDYTFTISSLQPEDIATYYCQQWSSYPYMYTFGQGTKVEIK
